Test results taken from article PMC9932102, “SVEP1 is an endogenous ligand for the orphan receptor PEAR1” (Nature Communications, 2023).
Where a chain is given by its changes, count along the chain named. Numbers in names are those of the source. One block for each binder: values may come before it.

Target: T1, biotinylated SVEP1 (mouse, UniProt A2AVA0 18-3567, biotin on the biotinylation domain (by BirA))
T1 construct: SVEP1, mouse Svep1 cDNA; biotinylation domain inserted in the C-terminus region upstream of the Myc tag; Same Svep1 construct as m1 with the biotinylation domain added; source: 293F cells, co-transfected with secreted BirA and supplemented with biotin, purified (Nuvia IMAC, Superose 6)
T1 sequence (A2AVA0 18-3567): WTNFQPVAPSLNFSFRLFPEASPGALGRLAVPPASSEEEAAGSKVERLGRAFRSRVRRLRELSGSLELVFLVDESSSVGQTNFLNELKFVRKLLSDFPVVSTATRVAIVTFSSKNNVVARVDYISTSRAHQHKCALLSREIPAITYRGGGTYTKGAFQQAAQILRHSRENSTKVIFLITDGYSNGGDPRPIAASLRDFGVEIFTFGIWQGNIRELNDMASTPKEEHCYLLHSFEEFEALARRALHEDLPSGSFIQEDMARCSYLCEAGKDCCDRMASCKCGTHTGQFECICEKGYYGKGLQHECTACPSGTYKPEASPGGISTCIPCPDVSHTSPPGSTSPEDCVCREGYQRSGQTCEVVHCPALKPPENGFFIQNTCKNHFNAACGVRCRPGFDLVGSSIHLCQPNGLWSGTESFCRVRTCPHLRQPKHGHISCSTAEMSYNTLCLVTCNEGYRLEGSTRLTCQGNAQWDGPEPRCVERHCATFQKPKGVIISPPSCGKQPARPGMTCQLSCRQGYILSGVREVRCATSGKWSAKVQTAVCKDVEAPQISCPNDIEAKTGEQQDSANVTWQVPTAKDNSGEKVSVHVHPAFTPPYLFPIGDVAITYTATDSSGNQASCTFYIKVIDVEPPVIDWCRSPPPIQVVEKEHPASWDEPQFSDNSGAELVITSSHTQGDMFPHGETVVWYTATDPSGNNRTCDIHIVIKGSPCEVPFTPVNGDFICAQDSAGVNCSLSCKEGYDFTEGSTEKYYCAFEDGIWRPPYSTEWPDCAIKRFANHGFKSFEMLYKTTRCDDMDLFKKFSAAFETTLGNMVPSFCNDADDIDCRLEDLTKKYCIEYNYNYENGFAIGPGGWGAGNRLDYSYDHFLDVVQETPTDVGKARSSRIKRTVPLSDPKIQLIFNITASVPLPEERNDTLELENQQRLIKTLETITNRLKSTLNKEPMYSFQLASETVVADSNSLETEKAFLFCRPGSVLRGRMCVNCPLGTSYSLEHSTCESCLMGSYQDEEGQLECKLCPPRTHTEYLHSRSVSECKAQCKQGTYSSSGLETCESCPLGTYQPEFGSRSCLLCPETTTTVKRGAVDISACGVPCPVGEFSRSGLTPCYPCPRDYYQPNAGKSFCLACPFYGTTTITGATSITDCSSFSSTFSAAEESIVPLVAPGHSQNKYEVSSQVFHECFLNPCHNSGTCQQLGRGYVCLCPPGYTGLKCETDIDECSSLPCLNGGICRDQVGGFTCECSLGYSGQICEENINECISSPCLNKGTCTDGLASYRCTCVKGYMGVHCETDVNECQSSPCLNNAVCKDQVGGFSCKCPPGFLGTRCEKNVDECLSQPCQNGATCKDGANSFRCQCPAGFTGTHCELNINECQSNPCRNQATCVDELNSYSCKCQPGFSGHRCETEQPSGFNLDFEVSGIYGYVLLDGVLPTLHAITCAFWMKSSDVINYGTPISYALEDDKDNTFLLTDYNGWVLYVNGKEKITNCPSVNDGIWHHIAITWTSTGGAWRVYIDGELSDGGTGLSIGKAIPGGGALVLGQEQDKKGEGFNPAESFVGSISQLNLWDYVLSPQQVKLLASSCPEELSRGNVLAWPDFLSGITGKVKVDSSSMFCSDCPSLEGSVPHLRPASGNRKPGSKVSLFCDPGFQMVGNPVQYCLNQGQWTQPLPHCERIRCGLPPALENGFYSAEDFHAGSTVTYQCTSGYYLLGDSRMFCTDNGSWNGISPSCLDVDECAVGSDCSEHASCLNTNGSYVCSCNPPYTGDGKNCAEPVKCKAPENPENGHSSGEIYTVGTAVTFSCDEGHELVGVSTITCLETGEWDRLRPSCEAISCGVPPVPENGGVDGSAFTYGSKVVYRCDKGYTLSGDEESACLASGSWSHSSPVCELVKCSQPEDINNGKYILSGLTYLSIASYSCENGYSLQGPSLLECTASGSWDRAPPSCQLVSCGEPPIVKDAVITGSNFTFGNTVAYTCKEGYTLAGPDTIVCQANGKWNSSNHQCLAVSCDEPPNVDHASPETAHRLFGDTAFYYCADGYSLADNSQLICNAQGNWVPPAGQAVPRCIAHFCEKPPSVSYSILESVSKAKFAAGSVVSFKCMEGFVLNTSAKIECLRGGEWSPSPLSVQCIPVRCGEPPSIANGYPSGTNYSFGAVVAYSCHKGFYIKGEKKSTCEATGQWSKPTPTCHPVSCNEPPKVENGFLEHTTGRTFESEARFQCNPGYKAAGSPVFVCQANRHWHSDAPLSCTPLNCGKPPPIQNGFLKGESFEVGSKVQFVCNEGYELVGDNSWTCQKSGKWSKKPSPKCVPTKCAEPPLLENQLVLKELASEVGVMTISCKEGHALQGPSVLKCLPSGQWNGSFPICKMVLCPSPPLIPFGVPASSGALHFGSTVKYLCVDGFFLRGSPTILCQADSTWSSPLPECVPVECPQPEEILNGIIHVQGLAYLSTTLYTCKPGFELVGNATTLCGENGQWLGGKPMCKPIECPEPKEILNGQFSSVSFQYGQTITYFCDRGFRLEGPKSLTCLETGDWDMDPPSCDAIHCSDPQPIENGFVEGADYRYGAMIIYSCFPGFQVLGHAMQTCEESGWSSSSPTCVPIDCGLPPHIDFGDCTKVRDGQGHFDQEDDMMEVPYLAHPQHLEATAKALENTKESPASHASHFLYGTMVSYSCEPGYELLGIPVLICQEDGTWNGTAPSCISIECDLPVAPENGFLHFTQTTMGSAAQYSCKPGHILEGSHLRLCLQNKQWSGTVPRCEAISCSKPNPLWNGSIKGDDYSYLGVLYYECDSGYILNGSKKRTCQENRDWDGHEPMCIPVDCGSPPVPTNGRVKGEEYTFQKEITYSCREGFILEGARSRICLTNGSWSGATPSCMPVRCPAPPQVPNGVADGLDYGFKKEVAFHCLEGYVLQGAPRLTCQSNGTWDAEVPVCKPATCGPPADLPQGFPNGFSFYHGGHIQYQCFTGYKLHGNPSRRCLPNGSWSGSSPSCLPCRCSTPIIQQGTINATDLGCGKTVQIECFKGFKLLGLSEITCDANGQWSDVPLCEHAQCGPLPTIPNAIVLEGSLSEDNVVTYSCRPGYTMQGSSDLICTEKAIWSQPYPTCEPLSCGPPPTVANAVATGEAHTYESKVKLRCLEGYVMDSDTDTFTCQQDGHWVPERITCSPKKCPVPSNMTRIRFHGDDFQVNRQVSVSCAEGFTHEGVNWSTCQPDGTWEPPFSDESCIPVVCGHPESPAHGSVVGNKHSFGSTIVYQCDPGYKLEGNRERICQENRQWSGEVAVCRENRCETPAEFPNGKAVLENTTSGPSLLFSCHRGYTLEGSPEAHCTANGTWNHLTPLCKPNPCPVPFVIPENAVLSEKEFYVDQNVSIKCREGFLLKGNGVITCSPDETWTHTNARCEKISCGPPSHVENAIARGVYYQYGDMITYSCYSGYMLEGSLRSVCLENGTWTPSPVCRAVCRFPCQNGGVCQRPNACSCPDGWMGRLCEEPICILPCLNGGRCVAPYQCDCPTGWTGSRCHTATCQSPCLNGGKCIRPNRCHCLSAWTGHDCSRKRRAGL
Assay: BLI; biotinylated SVEP1 loaded on Octet SA biosensors (20 min, about 0.7 nm shift), quenched with biocytin; PEAR1 or PEAR1 D343N 10-90 nM as analyte; 0.01% Tween 20 in calcium-containing DPBS; 15 min association, 15 min dissociation; global 1:1 fit
Settings: both partners purified

- Kd: 0.708 ± 0.003 nM
B1: PEAR1 (analyte of the BLI on biotinylated SVEP1) (receptor)
chain: LNPSDPNTCSFWESFTTTTKESHSRPFSLLPSEPCERPWEGPHTCPQPTVVYRTVYRQVVKTDHRQRLQCCHGFYESRGFCVPLCAQECVHGRCVAPNQCQCVPGWRGDDCSSECAPGMWGPQCDKPCSCGNNSSCDPKSGVCSCPSGLQPPNCLQPCTPGYYGPACQFRCQCHGAPCDPQTGACFCPAERTGPSCDVSCSQGTSGFFCPSTHSCQNGGVFQTPQGSCSCPPGWMGTICSLPCPEGFHGPNCSQECRCHNGGLCDRFTGQCRCAPGYTGDRCREECPVGRFGQDCAETCDCAPDARCFPANGACLCEHGFTGDRCTDRLCPDGFYGLSCQAPCTCDREHSLSCHPMNGECSCLPGWAGLHCNESCPQDTHGPGCQEHCLCLHGGVCQATSGLCQCAPGYTGPHCASLCPPDTYGVNCSARCSCENAIACSPIDGECVCKEGWQRGNCSVPCPPGTWGFSCNASCQCAHEAVCSPQTGACTCTPGWHGAHCQLPCPKGQFGEGCASRCDCDHSDGCDPVHGRCQCQAGWMGARCHLSCPEGLWGVNCSNTCTCKNGGTCLPENGNCVCAPGFRGPSCQRSCQPGRYGKRCVPCKCANHSFCHPSNGTCYCLAGWTGPDCSQPCPPGHWGENCAQTCQCHHGGTCHPQDGSCICPLGWTGHHCLEGCPLGTFGANCSQPCQCGPGEKCHPETGACVCPPGHSGAPCRIGIQEPFTVMPTTPVAYNSL

- Kd: 1.76 ± 0.006 nM
B2: PEAR1 D343N (receptor, human, UniProt Q5VY43 21-755, looked up)
chain: B1 chain with D323N
notes: PEAR1 with the natural human missense variant p.D343N (rs147639000) in an EGF-like domain of the ectodomain; the construct is not described; as a soluble analyte it is probably an ectodomain (surmise); also called PEAR1 p.D343N; rs147639000
